Target: Pyruvate kinase M2 (PKM2) (human (endogenous in HCT116 and RKO)) (UniProt P14618)
Assay: cross-linking

Chain of Pyruvate kinase M2 (PKM2), P14618 1-531 (natural protein; other documents disagree on this pair) (P14618 whole entry): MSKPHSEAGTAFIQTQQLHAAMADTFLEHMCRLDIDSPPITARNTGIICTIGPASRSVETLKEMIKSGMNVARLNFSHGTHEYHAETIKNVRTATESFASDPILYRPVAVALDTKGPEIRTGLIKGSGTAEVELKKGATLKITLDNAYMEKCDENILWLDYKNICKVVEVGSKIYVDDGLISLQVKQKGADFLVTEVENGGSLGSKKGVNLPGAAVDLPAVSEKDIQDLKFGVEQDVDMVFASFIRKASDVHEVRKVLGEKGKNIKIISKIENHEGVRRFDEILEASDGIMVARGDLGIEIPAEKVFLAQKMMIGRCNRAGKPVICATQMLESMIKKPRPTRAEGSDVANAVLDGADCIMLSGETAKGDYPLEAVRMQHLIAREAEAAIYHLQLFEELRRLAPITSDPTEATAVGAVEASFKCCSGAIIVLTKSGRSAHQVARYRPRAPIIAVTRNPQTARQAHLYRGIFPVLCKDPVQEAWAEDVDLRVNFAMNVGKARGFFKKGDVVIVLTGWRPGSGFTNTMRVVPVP

stoichiometry N: 2
Substance: Pyruvate kinase M2 (PKM2), P14618 1-531 (natural protein; other documents disagree on this pair)

From article PMC11686999
